# Test results as given in patent publication US20260217779A1.
# Columns and labels:
# Test in all cases: cell-based or functional assay
# [1] = molecular target: hCXCL10R75A.0047-G1T4k.one//VHn-G1T4h.one.H435R (human) [IgG part: P01857]
# [2] = molecular target: hCXCL10R75A-G1T4k.one//VHn-G1T4h.one.H435R (human) [IgG part: P01857]
# [3] = molecular target: hCXCL10R75A.0007-G1T4k.one//VHn-G1T4h.one.H435R (human) [IgG part: P01857]
# [4] = molecular target: hCXCL10R75A.0005-G1T4k.one//VHn-G1T4h.one.H435R (human) [IgG part: P01857]
# [5] = molecular target: hCXCL10R75A.0041-G1T4k.one//VHn-G1T4h.one.H435R (human) [IgG part: P01857]
# [6] = molecular target: hCXCL10R75A.0049-G1T4k.one//VHn-G1T4h.one.H435R (human) [IgG part: P01857]
# [7] = molecular target: hCXCL10R75A.0033-G1T4k.one//VHn-G1T4h.one.H435R (human) [IgG part: P01857]
# [8] = molecular target: hCXCL10R75A.0053-G1T4k.one//VHn-G1T4h.one.H435R (human) [IgG part: P01857]
# [9] = molecular target: hCXCL10R75A.0034-G1T4k.one//VHn-G1T4h.one.H435R (human) [IgG part: P01857]
# [10] = molecular target: hCXCL10R75A.0001-G1T4k.one//VHn-G1T4h.one.H435R (human) [IgG part: P01857]
# [11] = molecular target: hCXCL10R75A.0042-G1T4k.one//VHn-G1T4h.one.H435R (human) [IgG part: P01857]
# [12] = molecular target: hCXCL10R75A.0025-G1T4k.one//VHn-G1T4h.one.H435R (human) [IgG part: P01857]
# [13] = molecular target: hCXCL10R75A.0009-G1T4k.one//VHn-G1T4h.one.H435R (human) [IgG part: P01857]
# [14] = molecular target: hCXCL10R75A.0031-G1T4k.one//VHn-G1T4h.one.H435R (human) [IgG part: P01857]
# [15] = molecular target: hCXCL10R75A.0027-G1T4k.one//VHn-G1T4h.one.H435R (human) [IgG part: P01857]
# [16] = molecular target: hCXCL10R75A.0004-G1T4k.one//VHn-G1T4h.one.H435R (human) [IgG part: P01857]
# [17] = molecular target: hCXCL10R75A.0018-G1T4k.one//VHn-G1T4h.one.H435R (human) [IgG part: P01857]
# [18] = molecular target: hCXCL10R75A.0036-G1T4k.one//VHn-G1T4h.one.H435R (human) [IgG part: P01857]
# [19] = molecular target: hCXCL10R75A.0015-G1T4k.one//VHn-G1T4h.one.H435R (human) [IgG part: P01857]
# [20] = molecular target: hCXCL10R75A.0044-G1T4k.one//VHn-G1T4h.one.H435R (human) [IgG part: P01857]
# [21] = molecular target: hCXCL10R75A.0010-G1T4k.one//VHn-G1T4h.one.H435R (human) [IgG part: P01857]
# [22] = molecular target: hCXCL10R75A.0016-G1T4k.one//VHn-G1T4h.one.H435R (human) [IgG part: P01857]
# [23] = molecular target: hCXCL10R75A.0029-G1T4k.one//VHn-G1T4h.one.H435R (human) [IgG part: P01857]
# [24] = molecular target: hCXCL10R75A.0019-G1T4k.one//VHn-G1T4h.one.H435R (human) [IgG part: P01857]
# [25] = molecular target: hCXCL10R75A.0054-G1T4k.one//VHn-G1T4h.one.H435R (human) [IgG part: P01857]
# [26] = molecular target: hCXCL10R75A.0038-G1T4k.one//VHn-G1T4h.one.H435R (human) [IgG part: P01857]
# [27] = molecular target: hCXCL10R75A.0017-G1T4k.one//VHn-G1T4h.one.H435R (human) [IgG part: P01857]
# [28] = molecular target: hCXCL10R75A.0023-G1T4k.one//VHn-G1T4h.one.H435R (human) [IgG part: P01857]
# human dipeptidyl peptidase IV (human DPPIV, hDPPIV) (Biolegend, 764102), sequence (P27487 29-766 limits assumed): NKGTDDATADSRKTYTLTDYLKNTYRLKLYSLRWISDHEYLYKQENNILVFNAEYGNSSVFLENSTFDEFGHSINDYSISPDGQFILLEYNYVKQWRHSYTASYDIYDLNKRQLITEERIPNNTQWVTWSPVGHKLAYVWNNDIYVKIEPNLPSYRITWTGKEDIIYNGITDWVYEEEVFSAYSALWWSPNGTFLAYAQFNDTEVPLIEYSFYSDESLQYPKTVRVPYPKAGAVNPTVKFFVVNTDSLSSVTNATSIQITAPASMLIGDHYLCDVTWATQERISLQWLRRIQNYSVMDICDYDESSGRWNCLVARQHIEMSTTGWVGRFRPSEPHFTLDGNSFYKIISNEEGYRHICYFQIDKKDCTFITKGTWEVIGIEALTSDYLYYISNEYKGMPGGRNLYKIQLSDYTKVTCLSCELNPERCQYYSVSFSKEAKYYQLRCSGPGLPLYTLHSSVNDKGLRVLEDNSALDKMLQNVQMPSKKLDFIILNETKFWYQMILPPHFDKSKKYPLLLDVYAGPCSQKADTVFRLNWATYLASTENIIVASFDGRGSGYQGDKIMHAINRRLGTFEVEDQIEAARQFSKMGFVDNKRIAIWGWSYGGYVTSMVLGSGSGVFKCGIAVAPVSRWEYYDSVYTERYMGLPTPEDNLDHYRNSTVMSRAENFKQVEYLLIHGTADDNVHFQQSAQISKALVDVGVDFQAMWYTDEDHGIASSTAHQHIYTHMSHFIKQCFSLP
# hCXCL10R75A.0027-G1T4k.one//VHn-G1T4h.one.H435R (human) [IgG part: P01857], sequence (P01857 other isoform, or with tags, fused parts or gaps H435R H435R, chain 1 of 2): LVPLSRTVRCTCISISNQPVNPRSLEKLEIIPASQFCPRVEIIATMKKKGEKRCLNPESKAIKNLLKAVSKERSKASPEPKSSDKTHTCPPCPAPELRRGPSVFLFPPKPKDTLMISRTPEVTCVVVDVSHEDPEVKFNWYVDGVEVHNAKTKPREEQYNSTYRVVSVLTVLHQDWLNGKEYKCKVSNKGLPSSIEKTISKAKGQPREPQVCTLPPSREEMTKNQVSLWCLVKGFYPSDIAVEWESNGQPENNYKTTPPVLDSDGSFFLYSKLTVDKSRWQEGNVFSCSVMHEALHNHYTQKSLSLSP
# hCXCL10R75A.0027-G1T4k.one//VHn-G1T4h.one.H435R (human) [IgG part: P01857], sequence (P01857 other isoform, or with tags, fused parts or gaps H435R H435R, chain 2 of 2): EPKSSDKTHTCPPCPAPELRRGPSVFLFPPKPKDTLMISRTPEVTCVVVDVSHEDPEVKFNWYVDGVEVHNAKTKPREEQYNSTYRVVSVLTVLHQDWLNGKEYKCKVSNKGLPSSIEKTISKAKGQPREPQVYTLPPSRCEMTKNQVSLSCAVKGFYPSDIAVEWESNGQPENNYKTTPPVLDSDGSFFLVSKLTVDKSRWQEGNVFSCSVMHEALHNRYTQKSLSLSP
# hCXCL10R75A.0041-G1T4k.one//VHn-G1T4h.one.H435R (human) [IgG part: P01857], sequence (P01857 other isoform, or with tags, fused parts or gaps H435R H435R, chain 1 of 2): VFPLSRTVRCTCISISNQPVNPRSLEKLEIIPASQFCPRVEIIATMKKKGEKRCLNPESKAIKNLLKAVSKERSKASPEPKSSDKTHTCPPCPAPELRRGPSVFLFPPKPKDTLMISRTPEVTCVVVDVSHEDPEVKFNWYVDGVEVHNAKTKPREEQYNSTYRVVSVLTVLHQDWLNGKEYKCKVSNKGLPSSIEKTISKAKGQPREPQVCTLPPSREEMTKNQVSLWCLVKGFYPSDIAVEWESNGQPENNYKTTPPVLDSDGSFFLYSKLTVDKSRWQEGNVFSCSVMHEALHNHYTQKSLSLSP
# hCXCL10R75A.0041-G1T4k.one//VHn-G1T4h.one.H435R (human) [IgG part: P01857], sequence (P01857 other isoform, or with tags, fused parts or gaps H435R H435R, chain 2 of 2): as the sequence (P01857 other isoform, or with tags, fused parts or gaps H435R H435R, chain 2 of 2) above
# hCXCL10R75A.0031-G1T4k.one//VHn-G1T4h.one.H435R (human) [IgG part: P01857], sequence (P01857 other isoform, or with tags, fused parts or gaps H435R H435R, chain 1 of 2): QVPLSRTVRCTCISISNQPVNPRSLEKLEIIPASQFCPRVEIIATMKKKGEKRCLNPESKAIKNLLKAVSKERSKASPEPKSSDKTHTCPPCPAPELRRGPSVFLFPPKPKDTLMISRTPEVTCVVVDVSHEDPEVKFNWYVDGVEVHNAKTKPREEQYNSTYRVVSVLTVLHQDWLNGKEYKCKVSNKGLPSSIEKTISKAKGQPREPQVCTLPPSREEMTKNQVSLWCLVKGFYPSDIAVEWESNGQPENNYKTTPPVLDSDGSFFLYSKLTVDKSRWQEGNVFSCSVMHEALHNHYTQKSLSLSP
# hCXCL10R75A.0031-G1T4k.one//VHn-G1T4h.one.H435R (human) [IgG part: P01857], sequence (P01857 other isoform, or with tags, fused parts or gaps H435R H435R, chain 2 of 2): as the sequence (P01857 other isoform, or with tags, fused parts or gaps H435R H435R, chain 2 of 2) above
# hCXCL10R75A.0029-G1T4k.one//VHn-G1T4h.one.H435R (human) [IgG part: P01857], sequence (P01857 other isoform, or with tags, fused parts or gaps H435R H435R, chain 1 of 2): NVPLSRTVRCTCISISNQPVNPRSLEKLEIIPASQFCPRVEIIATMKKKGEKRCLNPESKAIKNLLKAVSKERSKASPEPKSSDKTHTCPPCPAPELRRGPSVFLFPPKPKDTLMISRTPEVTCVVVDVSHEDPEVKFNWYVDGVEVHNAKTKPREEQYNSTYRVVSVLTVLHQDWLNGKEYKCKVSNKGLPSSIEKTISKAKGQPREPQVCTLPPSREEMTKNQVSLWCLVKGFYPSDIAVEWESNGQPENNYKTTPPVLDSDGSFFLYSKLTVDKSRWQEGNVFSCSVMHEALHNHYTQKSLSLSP
# hCXCL10R75A.0029-G1T4k.one//VHn-G1T4h.one.H435R (human) [IgG part: P01857], sequence (P01857 other isoform, or with tags, fused parts or gaps H435R H435R, chain 2 of 2): as the sequence (P01857 other isoform, or with tags, fused parts or gaps H435R H435R, chain 2 of 2) above
# hCXCL10R75A.0015-G1T4k.one//VHn-G1T4h.one.H435R (human) [IgG part: P01857], sequence (P01857 other isoform, or with tags, fused parts or gaps H435R H435R, chain 1 of 2): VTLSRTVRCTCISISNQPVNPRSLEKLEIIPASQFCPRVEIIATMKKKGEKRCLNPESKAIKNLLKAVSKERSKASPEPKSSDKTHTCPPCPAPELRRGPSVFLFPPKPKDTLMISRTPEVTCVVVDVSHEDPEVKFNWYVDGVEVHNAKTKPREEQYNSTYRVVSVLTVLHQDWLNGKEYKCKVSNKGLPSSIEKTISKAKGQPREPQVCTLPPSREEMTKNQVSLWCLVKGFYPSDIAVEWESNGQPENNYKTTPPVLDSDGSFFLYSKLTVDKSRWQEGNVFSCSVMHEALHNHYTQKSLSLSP
# hCXCL10R75A.0015-G1T4k.one//VHn-G1T4h.one.H435R (human) [IgG part: P01857], sequence (P01857 other isoform, or with tags, fused parts or gaps H435R H435R, chain 2 of 2): as the sequence (P01857 other isoform, or with tags, fused parts or gaps H435R H435R, chain 2 of 2) above
# hCXCL10R75A.0036-G1T4k.one//VHn-G1T4h.one.H435R (human) [IgG part: P01857], sequence (P01857 other isoform, or with tags, fused parts or gaps H435R H435R, chain 1 of 2): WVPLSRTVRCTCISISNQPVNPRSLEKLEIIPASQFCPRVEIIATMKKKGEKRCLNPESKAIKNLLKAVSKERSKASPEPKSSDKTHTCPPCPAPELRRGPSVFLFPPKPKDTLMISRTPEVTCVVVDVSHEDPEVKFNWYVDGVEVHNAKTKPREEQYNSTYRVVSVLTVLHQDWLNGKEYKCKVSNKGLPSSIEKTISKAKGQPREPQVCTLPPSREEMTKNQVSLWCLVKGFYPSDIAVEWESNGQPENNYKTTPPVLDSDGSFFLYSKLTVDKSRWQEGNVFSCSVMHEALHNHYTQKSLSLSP
# hCXCL10R75A.0036-G1T4k.one//VHn-G1T4h.one.H435R (human) [IgG part: P01857], sequence (P01857 other isoform, or with tags, fused parts or gaps H435R H435R, chain 2 of 2): as the sequence (P01857 other isoform, or with tags, fused parts or gaps H435R H435R, chain 2 of 2) above
# hCXCL10R75A.0005-G1T4k.one//VHn-G1T4h.one.H435R (human) [IgG part: P01857], sequence (P01857 other isoform, or with tags, fused parts or gaps H435R H435R, chain 1 of 2): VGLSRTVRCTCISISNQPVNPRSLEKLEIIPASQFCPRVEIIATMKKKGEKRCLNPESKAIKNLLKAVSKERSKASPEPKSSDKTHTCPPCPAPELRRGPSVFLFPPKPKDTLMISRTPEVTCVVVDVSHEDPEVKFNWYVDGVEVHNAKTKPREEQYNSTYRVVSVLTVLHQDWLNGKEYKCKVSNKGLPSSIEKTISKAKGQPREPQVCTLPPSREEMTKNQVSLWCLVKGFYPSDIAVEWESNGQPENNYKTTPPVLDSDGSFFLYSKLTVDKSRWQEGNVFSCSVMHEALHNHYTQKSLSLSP
# hCXCL10R75A.0005-G1T4k.one//VHn-G1T4h.one.H435R (human) [IgG part: P01857], sequence (P01857 other isoform, or with tags, fused parts or gaps H435R H435R, chain 2 of 2): as the sequence (P01857 other isoform, or with tags, fused parts or gaps H435R H435R, chain 2 of 2) above
substance,measurement,setting,value
"human dipeptidyl peptidase IV (human DPPIV, hDPPIV) (Biolegend, 764102) (from UniProt P27487 29-766) (enzyme)",mass change after hDPPIV treatment (LC/MS),[1],0 Da
same,mass change after hDPPIV treatment (LC/MS),[2],195 Da
same,mass change after hDPPIV treatment (LC/MS),[3],1 Da
same,mass change after hDPPIV treatment (LC/MS),[4],-1 Da
same,mass change after hDPPIV treatment (LC/MS),[5],0 Da
same,mass change after hDPPIV treatment (LC/MS),[6],1 Da
same,mass change after hDPPIV treatment (LC/MS),[7],2 Da
same,mass change after hDPPIV treatment (LC/MS),[8],-2 Da
same,mass change after hDPPIV treatment (LC/MS),[9],0 Da
same,mass change after hDPPIV treatment (LC/MS),[10],171 Da
same,mass change after hDPPIV treatment (LC/MS),[11],1 Da
same,mass change after hDPPIV treatment (LC/MS),[12],0 Da
same,mass change after hDPPIV treatment (LC/MS),[13],1 Da
same,mass change after hDPPIV treatment (LC/MS),[14],0 Da
same,mass change after hDPPIV treatment (LC/MS),[15],1 Da
same,mass change after hDPPIV treatment (LC/MS),[16],1 Da
same,mass change after hDPPIV treatment (LC/MS),[17],0 Da
same,mass change after hDPPIV treatment (LC/MS),[18],0 Da
same,mass change after hDPPIV treatment (LC/MS),[19],0 Da
same,mass change after hDPPIV treatment (LC/MS),[20],0 Da
same,mass change after hDPPIV treatment (LC/MS),[21],-1 Da
same,mass change after hDPPIV treatment (LC/MS),[22],1 Da
same,mass change after hDPPIV treatment (LC/MS),[23],-1 Da
same,mass change after hDPPIV treatment (LC/MS),[24],1 Da
same,mass change after hDPPIV treatment (LC/MS),[25],0 Da
same,mass change after hDPPIV treatment (LC/MS),[26],0 Da
same,mass change after hDPPIV treatment (LC/MS),[27],0 Da
same,mass change after hDPPIV treatment (LC/MS),[28],1 Da
